Reference: paper PMC10683481

Target: GST-PLIED-M1 (E. coli) (UniProt P0ABQ4)

- acetylation yield of MDM2 K51 (LC-MS/MS) with MDM2 (1.4 μM), PLIED-M1 (4 μM), TMP-BAHA 1 (10 μM) and acetyl donor 2 (100 μM), 37 °C, 5 h: 70%
Substance: Recombinant human MDM2 (17-125) (from UniProt Q00987 17-125) (domain or fragment)
